Test results taken from PMC7555777, “Cataract-Associated New Mutants S175G/H181Q of βΒ2-Crystallin and P24S/S31G of γD-Crystallin Are Involved in Protein Aggregation by Structural Changes” (International Journal of Molecular Sciences, 2020).

Molecular target: the molecule itself
Assay: SEC; Superdex 200 HR 10/30 in PBS; 450 µg/100 µL protein loaded; 0.5 mL/min; UV 280 nm; markers albumin (66.4 kDa) and α-lactalbumin (14.2 kDa); dimer in rapid equilibrium with monomer

Row | Protein | binding result
1 | wild-type βB2-crystallin (natural protein, human, human beta-crystallin B2 (CRBB2 cDNA from a human cDNA library in pGEX-4t-1); Residues left by the vector after the thrombin cut are not described; also called WT βB2-crystallin; Beta-crystallin B2; source: E. coli BL21 (DE3), purified (glutathione-agarose, GST cut off with thrombin)) ASDHQTQAGKPQSLNPKIIIFEQENFQGHSHELNGPCPNLKETGVEKAGSVLVQAGPWVGYEQANCKGEQFVFEKGEYPRWDSWTSSRRTDSLSSLRPIKVDSQEHKIILYENPNFTGKKMEIIDDDVPSFHAHGYQEKVSSVRVQSGTWVGYQYPGYRGLQYLLEKGDYKDSSDFGAPHPQVQSVRRIRDMQWHQRGAFHPSN | binds
2 | S175G/H181Q mutant βB2-crystallin (natural protein, human, human beta-crystallin B2 (CRBB2 cDNA in pGEX-4t-1) with the two changes found in cataract lenses, made by site-directed mutagenesis; Residues left by the vector after the thrombin cut are not described; also called S175G/H181Q βB2-crystallin; CRBB2 S175G/H181Q; source: E. coli BL21 (DE3), purified (glutathione-agarose, GST cut off with thrombin)) ASDHQTQAGKPQSLNPKIIIFEQENFQGHSHELNGPCPNLKETGVEKAGSVLVQAGPWVGYEQANCKGEQFVFEKGEYPRWDSWTSSRRTDSLSSLRPIKVDSQEHKIILYENPNFTGKKMEIIDDDVPSFHAHGYQEKVSSVRVQSGTWVGYQYPGYRGLQYLLEKGDYKDSGDFGAPQPQVQSVRRIRDMQWHQRGAFHPSN | binds
